According to patent publication US20210260070A1, “LYSIN CF-301 RESENSITIZES METHICILLIN-RESISTANT STAPHYLOCOCCUS AUREUA (MRSA) TO PENICILLIN DERIVATIVES AND FIRST GENERATION CEPHALOSPORINS” (priority 2018, published 2021):
Values joined by “and” are separate entries in the source; they are usually repeats but may differ in a detail not shown here. Equal values may be shown once.

Legend:
Assay type in all cases: cell-based, Staphylococcus aureus
[1] = tested on: MRSA isolates from valvular vegetations; assay: MIC values of MRSA isolates recovered from valvular vegetations after PlySs2 treatment (ex vivo)
Experimental: An ex vivo analysis was performed on tissue samples recovered after PlySs2 treatment in a standard rabbit model of MRSA infective endocarditis (IE), as disclosed in Xiong et al., Comparative efficacy of telavancin and daptomycin in experimental endocarditis due to multi-clonotype MRSA strains, J. ANTIMIC. CHEMO. (2016); 71(1):2890-94. The standard rabbit IE model was used to confirm the impact of PlySs2 treatment on oxacillin MICs. Four days after treatment with a single-dose of PlySs2 (0.18 mg/kg to 1.4 mg/kg) in the IE model, isolates were recovered from valvular vegetations and plated on TSAB (non-selective condition, Tables 3 and 4) and TSAB supplemented with PlySs2 over a range of concentrations (selective conditions, Tables 5 and 6). MIC values of the MRSA isolates were determined for both PlySs2 and oxacillin. Tables 3 and 4 below show the MICs calculated for PlySs2 and oxacillin, respectively, for valvular vegetations subject to the non-selective conditions.

[2] = tested on: MRSA strain ATCC 43300; assay: Broth microdilution checkerboard assay; design: unit not given here; details: for MICinitial: each agent alone (initial); for MICfinal: * = Resensitization
From the text: (§1) In some embodiments, the present lysin polypeptides reduce the minimum inhibitory concentration (MIC) of an antibiotic. Any known method to assess MIC may be used. In some embodiments, a checkerboard assay is used to determine the effect of a lysin on antibiotic concentration. The checkerboard assay is based on a modification of the CLSI method for MIC determination by broth microdilution (See Clinical and Laboratory Standards Institute (CLSI), CLSI. 2015. Methods for Dilution Antimicrobial Susceptibility Tests for Bacteria That Grow Aerobically; Approved Standard-10th Edition. Clinical and Laboratory Standards Institute, Wayne, Pa., which is herein incorporated by reference in its entirety and Ceri et al. 1999. J. Clin. Microbiol. 37: 1771-1776, which is also herein incorporated by reference in its entirety).
(§2) Checkerboards are constructed by first preparing columns of e.g., a 96-well polypropylene microtiter plate, wherein each well has the same amount of antibiotic diluted 2-fold along the horizontal axis. […] The lysin and antibiotic dilutions are then combined, so that each column has a constant amount of antibiotic and doubling dilutions of lysin, while each row has a constant amount of lysin and doubling dilutions of antibiotic. Each well thus has a unique combination of lysin and antibiotic. Bacteria are added to the drug combinations at a given concentration. […] Summation fractional inhibitory concentrations (ΣFICs) are calculated for each drug and the minimum ΣFIC value (ΣFICmin) is used to determine the effect of the lysin/antibiotic combination.
(§3) A step-wise approach was used to evaluate PlySs2 as a resensitizing agent. First, broth microdilution checkerboard assays were used to determine fractional inhibitory concentration index (FICI) values for combinations of PlySs2 with three β-lactam antibiotics [oxacillin (OXA), nafcillin (NAF), and cefazoline (CFZ)] against nine different MRSA strains. Data from the checkerboard assays were generated to determine the interaction and potency of PlySs2 with the β-lactam antibiotics in comparison to their individual activities. This comparison is represented as the FICI value, whereby values of ≤0.5 are consistent with synergy, values of >0.5-<1 are highly-additive, values of 1-≤2 are indifferent, and values >2 are antagonistic. Representative single agent MICs are also shown, determined for each agent alone (initial) and in combinations (final). Resensitization occurs in synergistic combinations in which the β-lactam antibiotic MIC values fall below established breakpoints, e.g. a MIC value of ≤2 for β-lactam-sensitive isolates, a MIC value of ≥4 for β-lactam-resistant isolates. See Clinical and Laboratory Standards Institute (CLSI), CLSI. 2019. M100 Performance Standards for Antimicrobial Susceptibility Testing; 29th Edition. Clinical and Laboratory Standards Institute, Wayne, Pa.

[3] = tested on: MRSA strain HPV 107; assay: Broth microdilution checkerboard assay; design: unit not given here; details: for MICinitial: each agent alone (initial); for MICfinal: * = Resensitization
From the text: as §1, §2, §3

[4] = tested on: MRSA strain JMI4789; assay: Broth microdilution checkerboard assay; design: unit not given here; details: for MICinitial: each agent alone (initial); for MICfinal: * = Resensitization
From the text: as §1, §2, §3

[5] = tested on: MRSA strain ATCC 33591; assay: Broth microdilution checkerboard assay; design: unit not given here; details: for MICinitial: each agent alone (initial); for MICfinal: * = Resensitization
From the text: as §1, §2, §3

[6] = tested on: MRSA strain NRS 11; assay: Broth microdilution checkerboard assay; design: unit not given here; details: for MICinitial: each agent alone (initial); for MICfinal: * = Resensitization
From the text: as §1, §2, §3

[7] = tested on: MRSA strain JMI 227; assay: Broth microdilution checkerboard assay; design: unit not given here; details: for MICinitial: each agent alone (initial); for MICfinal: * = Resensitization
From the text: as §1, §2, §3

[8] = tested on: MRSA strain JMI 1280; assay: Broth microdilution checkerboard assay; design: unit not given here; details: for MICinitial: each agent alone (initial); for MICfinal: * = Resensitization
From the text: as §1, §2, §3

[9] = tested on: MRSA strain MW2; assay: Broth microdilution checkerboard assay; design: unit not given here; details: for MICinitial: each agent alone (initial); for MICfinal: * = Resensitization
From the text: as §1, §2, §3

[10] = tested on: MRSA strain CAIRD 426; assay: Broth microdilution checkerboard assay; design: unit not given here; details: for MICinitial: each agent alone (initial); for MICfinal: * = Resensitization
From the text: as §1, §2, §3

[11] = in combination PlySs2 + OXA (final)
[12] = non-selective, PlySs2 0.18 mg/kg (n = 24)
[13] = non-selective, PlySs2 0.35 mg/kg (n = 24)
[14] = non-selective, PlySs2 0.7 mg/kg (n = 24)
[15] = non-selective, PlySs2 1.4 mg/kg (n = 24)
[16] = selective conditions, PlySs2 0.18 mg/kg (n = 24)
[17] = selective conditions, PlySs2 0.35 mg/kg (n = 24)
[18] = selective conditions, PlySs2 0.7 mg/kg (n = 24)
[19] = selective conditions, PlySs2 1.4 mg/kg (n = 24)
[20] = in combination PlySs2 + CFZ (final)
[21] = in combination PlySs2 + NAF (final)

Molecule: Cc1onc(-c2ccccc2)c1C(=O)N[C@@H]1C(=O)N2[C@@H]1SC(C)(C)[C@@H]2C(=O)O [OXA, oxacillin]
- MIC ([1]; Staphylococcus aureus, MRSA, read-out: Oxacillin MIC after PlySs2 exposure): < 2 µg/mL
- Reduction in oxacillin MIC values ([1]; isolates after PlySs2 exposure in rabbit IE, selective conditions): greater than 16 fold
- MICinitial [2]: 8
- MICfinal [2, 11]: 0.5*
- MICinitial [3]: 8
- MICfinal [3, 11]: 0.5*
- MICinitial [4]: 64
- MICfinal [4, 11]: 2*
- MICinitial [5]: 256
- MICfinal [5, 11]: 1*
- MICinitial [6]: 256
- MICfinal [6, 11]: 2*
- MICinitial [7]: 16
- MICfinal [7, 11]: 1*
- MICinitial [8]: 256
- MICfinal [8, 11]: 1*
- MICinitial [9]: 64
- MICfinal [9, 11]: 2*
- MICinitial [10]: 4
- MICfinal [10, 11]: 1*

B1: PlySs2: bacteriophage lysin derived from Streptococcus suis, amino acid sequence SEQ ID NO: 1 (245 residues) (protein, listed as Streptococcus suis)
chain: MTTVNEALNNVRAQVGSGVSVGNGECYALASWYERMISPDATVGLGAGVGWVSGAIGDTISAKNIGSSYNWQANGWTVSTSGPFKAGQIVTLGATPGNPYGHVVIVEAVDGDRLTILEQNYGGKRYPVRNYYSAASYRQQVVHYITPPGTVAQSAPNLAGSRSYRETGTMTVTVDALNVRRAPNTSGEIVAVYKRGESFDYDTVIIDVNGYVWVSYIGGSGKRNYVATGATKDGKRFGNAWGTFK
- PlySs2 MIC of recovered isolates ([1]; non-selective conditions, remained stable): 1 µg/mL
- Number of isolates with Oxacillin MIC 32 μg/mL [1, 12]: 16
- Number of isolates with PlySs2 MIC 1 μg/mL [1, 12]: 16
- Number of isolates with Oxacillin MIC 32 μg/mL [1, 13]: 18
- Number of isolates with Oxacillin MIC ≤2 μg/mL [1, 13]: 6
- Number of isolates with PlySs2 MIC 0.5 μg/mL [1, 13]: 3
- Number of isolates with PlySs2 MIC 1 μg/mL [1, 13]: 21
- Number of isolates with Oxacillin MIC 16 μg/mL [1, 14]: 1
- Number of isolates with Oxacillin MIC 32 μg/mL [1, 14]: 23
- Number of isolates with PlySs2 MIC 0.5 μg/mL [1, 14]: 1
- Number of isolates with PlySs2 MIC 1 μg/mL [1, 14]: 23
- Number of isolates with Oxacillin MIC 32 μg/mL [1, 15]: 17
- Number of isolates with Oxacillin MIC ≤2 μg/mL [1, 15]: 7
- Number of isolates with PlySs2 MIC 1 μg/mL ([1]; non-selective, rabbits given PlySs2 1.4 mg/kg (n = 24)): 24
- PlySs2 MIC increase ([1]; selective conditions, isolates after PlySs2 treatment): ≤ 2 fold
- Number of isolates with Oxacillin MIC 32 μg/mL [1, 16]: 16
- Number of isolates with PlySs2 MIC 1 μg/mL [1, 16]: 14
- Number of isolates with PlySs2 MIC 2 μg/mL [1, 16]: 2
- Number of isolates with Oxacillin MIC 32 μg/mL [1, 17]: 17
- Number of isolates with Oxacillin MIC <2 μg/mL [1, 17]: 7
- Number of isolates with PlySs2 MIC 1 μg/mL [1, 17]: 22
- Number of isolates with PlySs2 MIC 2 μg/mL [1, 17]: 2
- Number of isolates with Oxacillin MIC 32 μg/mL [1, 18]: 21
- Number of isolates with PlySs2 MIC 1 μg/mL [1, 18]: 19
- Number of isolates with PlySs2 MIC 2 μg/mL [1, 18]: 3
- Number of isolates with Oxacillin MIC between <2 and 32 μg/mL (4, 8 or 16) ([1]; selective conditions, PlySs2 0.7 mg/kg (n = 24), column not resolvable): 3
- Number of isolates with Oxacillin MIC 32 μg/mL [1, 19]: 21
- Number of isolates with Oxacillin MIC <2 μg/mL [1, 19]: 3
- Number of isolates with PlySs2 MIC 1 μg/mL [1, 19]: 20
- Number of isolates with PlySs2 MIC 2 μg/mL [1, 19]: 4
- PlySs2 MIC of recovered isolates ([1]; selective conditions, remained largely stable): 1 µg/mL
- MICinitial [2]: 1
- MICfinal [2, 20]: 0.125
- MICfinal [2, 21]: 0.125
- MICfinal [2, 11]: 0.25
- MICinitial [3]: 1
- MICfinal [3, 20]: 0.125
- MICfinal [3, 21]: 0.25
- MICfinal [3, 11]: 0.25
- MICinitial [4]: 1
- MICfinal [4, 20]: 0.125
- MICfinal [4, 21]: 0.125
- MICfinal [4, 11]: 0.25
- MICinitial [5]: 1
- MICfinal [5, 20]: 0.25
- MICfinal [5, 21]: 1.125
- MICfinal [5, 11]: 0.25
- MICinitial [6]: 1
- MICfinal [6, 20]: 0.25
- MICfinal [6, 21]: 0.25
- MICfinal [6, 11]: 0.25
- MICinitial [7]: 1
- MICfinal [7, 20]: 0.25
- MICfinal [7, 21]: 0.25
- MICfinal [7, 11]: 0.25
- MICinitial [8]: 1
- MICfinal [8, 20]: 0.25
- MICfinal [8, 21]: 0.25
- MICfinal [8, 11]: 0.25
- MICinitial [9]: 1 and 2
- MICfinal [9, 20]: 0.125
- MICfinal [9, 21]: 0.5
- MICfinal [9, 11]: 0.25
- MICinitial [10]: 1
- MICfinal [10, 20]: 0.25
- MICfinal [10, 21]: 0.25
- MICfinal [10, 11]: 0.25
